Test [1] has as its target T1, PD-L1 expressed on the cell surface (CHO/PD-L1 cells) (UniProt Q9NZQ7 19-290). Kind of test: cell-based or functional assay.
The target of test [2] is T1, PD-L1 expressed on the cell surface …. Kind of test: cell-based or functional assay. This is another data set of the same source.
The target in test [3] is T2, CD137 expressed on the cell surface (CHO/CD137 cells) (UniProt Q07011 24-255, limits assumed).
T2 construct: whole, on cells; also called cell surface CD137; Jurkat-NF-κB-Luc reporter cells overexpressing CD137
Nature of the test: flow cytometry (FACS) on CHO cells expressing CD137, MFI. How it is done:
FACS analysis to evaluate the test articles for binding to cell surface CD137 was performed essentially as follows: 100 μL of CHO cells expressing CD137 (CHO/CD137) (1.0×10⁵ to 1×10⁶ cells/well) and 100 μL of serially diluted test article or control was added to each well of microtiter assay plate(s), mixed and incubated at RT for about 30 min. The cells were washed with FACS Buffer and secondary antibody (goat anti-human-APC, PE, or FITC) was then added to each well (1:1000), after which, the components were mixed and the wells were incubated at RT for about 30 min. Cells were washed and resuspended in 250 μL FACS Buffer and analyzed by flow cytometry (BD LSR Fortessa or FACSCanto II) for cell events collection. Data analysis were performed via FloJo v10.
(A flow cytometer gives signals particle by particle.)

Test [4] concerns the target T3, soluble PD-L1 fused to a His tag (shPD-L1) (UniProt Q9NZQ7 19-238, limits assumed).
T3 construct: the species of shPD-L1 is not written out; also called shPD-L1-his; not shown: His tag
Nature of the test: ELISA on plate-coated shPD-L1-his, anti-human kappa-HRP detection, RLU. How it is done: ELISA assays to evaluate the test articles for CD137 binding were performed essentially as follows: flat bottom maxisorb 96-well plates were coated with soluble human or cynomolgus monkey CD137 (the extracellular domain of human or cynomolgus monkey CD137 fused to a His tag (shCD137 His or scyCD137 His) or to a human Fc Region (shCD137 hFc or scyCD137 hFc)), each at 0.5 or 1 μg/mL. The plates were washed, blocked with PBS buffer containing 0.5% bovine serum albumin and 0.1% Tween20, and incubated with a test article (e.g., cell supernatants or purified mAb). For the hybridoma supernatants anti-CD137 antibody was utilized at 1.0 μg/mL and six three-fold serial dilutions. The amount of test article binding to the immobilized CD137 (human or cynomolgus monkey) was assessed using a goat anti-mouse IgG-HRP secondary antibody. All samples were analyzed on a plate reader (Victor 2 Wallac, Perkin Elmer) and EC50 values were calculated from dose-response curves by nonlinear regression analysis.
The binding of Fab fragments comprising different combinations of these substitutions to shPD-L1-his was evaluated by ELISA essentially as described above except a goat anti-human kappa-HRP secondary antibody was used.
On the technique in general: An ELISA detects its analyte on a solid surface through an enzyme-linked reagent.

For orientation: EC50 (read off the curve) means the concentration giving half of the maximal effect. High values mean weaker potency, low ones greater potency.

Where two headings read alike, the source gives them in different places.

T3 sequence (Q9NZQ7 19-238 limits assumed): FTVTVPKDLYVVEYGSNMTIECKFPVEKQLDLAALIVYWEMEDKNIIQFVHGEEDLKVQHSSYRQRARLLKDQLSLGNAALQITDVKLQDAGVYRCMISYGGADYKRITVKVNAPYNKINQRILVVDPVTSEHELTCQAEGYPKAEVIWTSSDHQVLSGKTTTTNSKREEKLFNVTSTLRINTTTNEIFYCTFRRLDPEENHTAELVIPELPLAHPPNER
T1 sequence (Q9NZQ7 19-290): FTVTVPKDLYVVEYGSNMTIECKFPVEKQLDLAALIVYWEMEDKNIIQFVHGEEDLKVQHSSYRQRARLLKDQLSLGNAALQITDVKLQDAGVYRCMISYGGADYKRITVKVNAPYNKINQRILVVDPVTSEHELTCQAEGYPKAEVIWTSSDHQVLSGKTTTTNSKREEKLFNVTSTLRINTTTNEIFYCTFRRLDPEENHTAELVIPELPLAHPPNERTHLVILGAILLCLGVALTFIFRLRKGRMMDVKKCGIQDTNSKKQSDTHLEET
T2 sequence (Q07011 24-255 limits assumed): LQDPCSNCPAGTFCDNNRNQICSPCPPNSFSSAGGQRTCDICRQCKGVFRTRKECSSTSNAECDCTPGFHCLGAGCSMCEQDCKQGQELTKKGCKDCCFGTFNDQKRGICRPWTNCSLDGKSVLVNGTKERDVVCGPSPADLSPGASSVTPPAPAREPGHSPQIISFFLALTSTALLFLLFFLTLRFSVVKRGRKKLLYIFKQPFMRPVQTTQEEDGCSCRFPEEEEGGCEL

B1: DART-A7 (bispecific antibody)
chain 1: DIQMTQSPSSLSASVGDRVTITCKASQDVNEAVAWYQQKPGKAPKLLIYWASTRHTGVPSRFSGSGSGTDFTLTISSLQPEDFATYYCQQHYNTPLTFGQGTKVEIKGGGSGGGGQVQLQESGPGLVKPSETLSLTCTVSGGSISSYYWSWIRQPPGKGLEWIGRIYTSGSTNYNPSLKSRVTMSVDTSKNQFSLKLSSVTAADTAVYYCARDGWYDEDYNYYGMDVWGQGTTVTVSSGGCGGGEVAACEKEVAALEKEVAALEKEVAALEKLEPKSADKTHTCPPCPAPEAAGGPSVFLFPPKPKDTLYITREPEVTCVVVDVSHEDPEVKFNWYVDGVEVHNAKTKPREEQYNSTYRVVSVLTVLHQDWLNGKEYKCKVSNKALPAPIEKTISKAKGQPREPQVYTLPPSREEMTKNQVSLTCLVKGFYPSDIAVEWESNGQPENNYKTTPPVLDSDGSFFLYSKLTVDKSRWQQGNVFSCSVMHEALHNHYTQKSLSLSPGK
chain 2: EIVMTQSPATLSLTPGERATLSCRASQSVSSNYLSWFQQIPGQAPRLLIYGASTRATGIPARFSGSGSGTDFTLTISSLQPEDFAVYYCQQDYDLPWTFGQGTKVEIKGGGSGGGGEVQLVESGGGLVQPGGSLRLSCAASGFTFSSYTMSWVRQAPGKGLEWVAYISIGGGTTYYPDTVKGRFTISRDNAKNSLYLQMNSLRAEDTAVYYCARAGLPYYFDYWGQGTLVTVSSGGCGGGKVAACKEKVAALKEKVAALKEKVAALKE
notes: Tetravalent; CD137 MAB-6(1.1) and hPD-L1 MAB-2(4.2)
On to B1, for which the “EC50 (read off the curve)” value was about 0.1 µg/mL in test [1], about 0.2 µg/mL in test [2] and about 0.05 µg/mL in test [3].

B2: DART-A8 (bispecific antibody)
chain 1: DIQMTQSPSSLSASVGDRVTITCKASQDVNEAVAWYQQKPGKAPKLLIYWASTRHTGVPSRFSGSGSGTDFTLTISSLQPEDFATYYCQQHYNTPLTFGQGTKVEIKGGGSGGGGQVQLQESGPGLVKPSETLSLTCTVSGGSISSYYWSWIRQPPGKGLEWIGRIYTSGSTNYNPSLKSRVTMSVDTSKNQFSLKLSSVTAADTAVYYCARDGWYDEDYNYYGMDVWGQGTTVTVSSGGCGGGEVAACEKEVAALEKEVAALEKEVAALEKLEPKSADKTHTCPPCPAPEAAGGPSVFLFPPKPKDTLYITREPEVTCVVVDVSHEDPEVKFNWYVDGVEVHNAKTKPREEQYNSTYRVVSVLTVLHQDWLNGKEYKCKVSNKALPAPIEKTISKAKGQPREPQVYTLPPSREEMTKNQVSLTCLVKGFYPSDIAVEWESNGQPENNYKTTPPVLDSDGSFFLYSKLTVDKSRWQQGNVFSCSVMHEALHNHYTQKSLSLSPGK
chain 2: EIVMTQSPATLSLTPGERATLSCRASQSVSSNYLSWFQQIPGQAPRLLIYGASTRATGIPARFSGSGSGTDFTLTISSLQPEDFAVYYCQQDYDLPWTFGQGTKVEIKGGGSGGGGEVQLVESGGGLVQPGGSLRLSCAASGFTFSSYTMSWVRQAPGKGLEWVAYISIKGGTTYYPDTVKGRFTISRDNAKNSLYLQMNSLRAEDTAVYYCARAGLPYYFDYWGQGTLVTVSSGGCGGGKVAACKEKVAALKEKVAALKEKVAALKE
Take B2: the 50% effective concentration (EC50 (read off the curve)) in test [1] was about 0.1 µg/mL.

B3: DART-A9 (bispecific antibody)
chain 1: DIQMTQSPSSLSASVGDRVTITCKASQDVNEAVAWYQQKPGKAPKLLIYWASTRHTGVPSRFSGSGSGTDFTLTISSLQPEDFATYYCQQHYNTPLTFGQGTKVEIKGGGSGGGGQVQLQESGPGLVKPSETLSLTCTVSGGSISSYYWSWIRQPPGKGLEWIGRIYTSGSTNYNPSLKSRVTMSVDTSKNQFSLKLSSVTAADTAVYYCARDGWYDEDYNYYGMDVWGQGTTVTVSSGGCGGGEVAACEKEVAALEKEVAALEKEVAALEKLEPKSADKTHTCPPCPAPEAAGGPSVFLFPPKPKDTLYITREPEVTCVVVDVSHEDPEVKFNWYVDGVEVHNAKTKPREEQYNSTYRVVSVLTVLHQDWLNGKEYKCKVSNKALPAPIEKTISKAKGQPREPQVYTLPPSREEMTKNQVSLTCLVKGFYPSDIAVEWESNGQPENNYKTTPPVLDSDGSFFLYSKLTVDKSRWQQGNVFSCSVMHEALHNHYTQKSLSLSPGK
chain 2: EIVMTQSPATLSLTPGERATLSCRASQSVSSNYLSWFQQIPGQAPRLLIYGASTRATGIPARFSGSGSGTDFTLTISSLQPEDFAVYYCQQDYDLPWTFGQGTKVEIKGGGSGGGGEVQLVESGGGLVQPGGSLRLSCAASGFTFSSYTMSWVRQAPGKGLEWVAYISIGGGTTYYPDTVKGRFTISRDNAKNSLYLQMNSLRAEDTAVYYCARAGLPYYGDYWGQGTLVTVSSGGCGGGKVAACKEKVAALKEKVAALKEKVAALKE
Regarding B3, in test [1], the “EC50 (read off the curve)” value is about 0.1 µg/mL.

B4: DART-A10 (bispecific antibody)
chain 1: DIQMTQSPSSLSASVGDRVTITCKASQDVNEAVAWYQQKPGKAPKLLIYWASTRHTGVPSRFSGSGSGTDFTLTISSLQPEDFATYYCQQHYNTPLTFGQGTKVEIKGGGSGGGGQVQLQESGPGLVKPSETLSLTCTVSGGSISSYYWSWIRQPPGKGLEWIGRIYTSGSTNYNPSLKSRVTMSVDTSKNQFSLKLSSVTAADTAVYYCARDGWYDEDYNYYGMDVWGQGTTVTVSSGGCGGGEVAACEKEVAALEKEVAALEKEVAALEKLEPKSADKTHTCPPCPAPEAAGGPSVFLFPPKPKDTLYITREPEVTCVVVDVSHEDPEVKFNWYVDGVEVHNAKTKPREEQYNSTYRVVSVLTVLHQDWLNGKEYKCKVSNKALPAPIEKTISKAKGQPREPQVYTLPPSREEMTKNQVSLTCLVKGFYPSDIAVEWESNGQPENNYKTTPPVLDSDGSFFLYSKLTVDKSRWQQGNVFSCSVMHEALHNHYTQKSLSLSPGK
chain 2: EIVMTQSPATLSLSPGERATLSCRASQSVSSNYLSWFQQKPGQAPRLLIYGASTRATGIPARFSGSGSGTDFTLTISSLQPEDFAVYYCQQDYDLPWTFGQGTKVEIKGGGSGGGGEVQLVESGGGLVQPGGSLRLSCAASGFTFSSYTMSWVRQAPGKGLEWVAYISIGGGTTYYPDTVKGRFTISRDNAKNSLYLQMNSLRAEDTAVYYCARAGLPYYFDYWGQGTLVTVSSGGCGGGKVAACKEKVAALKEKVAALKEKVAALKE
notes: Tetravalent; CD137 MAB-6(1.3) and hPD-L1 MAB-2(4.2)
In the case of B4, the “EC50 (read off the curve)” value was about 0.2 µg/mL in test [2] and about 0.05 µg/mL in test [3].

B5: hPD-L1 MAB-2A (Fab) (Fab, V domains shown)
VH: EVQLVESGGGLVQPGGSLRLSCAASGFTFSGYTMSWVRQAPGKGLEWVAYISIKGGTTYYPDTVKGRFTISRDNAKNTLYLQMNSLKTEDTAVYYCARAGLPYYFDYWGQGTLVTVSS
VL: DIQMTQSPSSLSASVGDRVTITCKASQHVNTAVAWYQQKPGKAPKLLIYWASTRHTGVPSRFSGSGSGTDFTLTISSLQPEDFATYYCQQHYNTPLTFGQGTKVEIK
notes: Fab fragment
For B5, the binding result in test [4] is “binds”.

B6: hPD-L1 MAB-2C (Fab) (Fab, V domains shown)
VH: EVQLVESGGGLVQPGGSLRLSCAASGFTFSGYTMSWVRQAPGKGLEWVAYISIKGGTTYYPDTVKGRFTISRDNAKNTLYLQMNSLKTEDTAVYYCARQGLPYYGDYWGQGTLVTVSS
VL: DIQMTQSPSSLSASVGDRVTITCKASQLVNTAVAWYQQKPGKAPKLLIYWASTRHTGVPSRFSGSGSGTDFTLTISSLQPEDFATYYCQQHYNTPLTFGQGTKVEIK
notes: Fab fragment
Regarding B6, the binding result in test [4] was “binds”.

B7: hPD-L1 MAB-2E (Fab) (Fab, V domains shown)
VH: EVQLVESGGGLVQPGGSLRLSCAASGFTFSSYTMSWVRQAPGKGLEWVAYISIKGGTTYYPDTVKGRFTISRDNAKNTLYLQMNSLKTEDTAVYYCARAGLPYYFDYWGQGTLVTVSS
VL: DIQMTQSPSSLSASVGDRVTITCKASQLVNTAVAWYQQKPGKAPKLLIYWASTRHTGVPSRFSGSGSGTDFTLTISSLQPEDFATYYCQQHYNTPLTFGQGTKVEIK
notes: Fab fragment
B7: in test [4], the binding result is recorded as “binds”.

B8: hPD-L1 MAB-2B (Fab) (Fab, V domains shown)
VH: EVQLVESGGGLVQPGGSLRLSCAASGFTFSGYTMSWVRQAPGKGLEWVAYISIKGGTTYYPDTVKGRFTISRDNAKNTLYLQMNSLKTEDTAVYYCARGGLPYYFDYWGQGTLVTVSS
VL: DIQMTQSPSSLSASVGDRVTITCKASQVVNTAVAWYQQKPGKAPKLLIYWASTRHTGVPSRFSGSGSGTDFTLTISSLQPEDFATYYCQQHYNTPLTFGQGTKVEIK
notes: Fab fragment
With B8, the binding result in test [4] was “binds”.

B9: hPD-L1 MAB-2D (Fab) (Fab, V domains shown)
VH: EVQLVESGGGLVQPGGSLRLSCAASGFTFSSYTMSWVRQAPGKGLEWVAYISIGGGTTYYPDTVKGRFTISRDNAKNTLYLQMNSLKTEDTAVYYCARQGLPYYGDYWGQGTLVTVSS
VL: DIQMTQSPSSLSASVGDRVTITCKASQLVNTAVAWYQQKPGKAPKLLIYWAETRHTGVPSRFSGSGSGTDFTLTISSLQPEDFATYYCQQHYNTPLTFGQGTKVEIK
notes: Fab fragment
As for B9, the binding result in test [4] was “binds”.

(Values after US20230094162A1 (MacroGenics, published 2023).)
